Three molecules from patent US20070065878A1 can be followed below.

Several values for one entry are separate records, joined by “and”; a condition that tells them apart may be missing. Identical values can stand only once.

In series [1] the test system is T1, EP 3.6.
T1 sequence: GSSDRARVW

The test system of series [2] is T2, negative control displaying the sequence GGQSGQ.
T2 sequence: GGQSGQ

Series [3] has as its system T3, EP 4.9.
T3 sequence: SVLDRWMGG

Series [4] relates to T4, EP 4.1.
T4 sequence: SVDYRFLGS

Series [5] relates to T5, EP 2.5.
T5 sequence: MSGERMGGS

The test system of series [6] is T6, CyPet-YPet substrate with recognition sequence SGDRMW (EP4.3).
T6 sequence: SGDRMWHHHHHH

Series [7] deals with T7, Dabcyl-SGDRMW(E-Edans)-amide.
T7 sequence: SGDRMW

Series [8] concerns T8, EP 4.2.
T8 sequence: MHGERMGGS

Series [9] concerns T9, EP 4.6.
T9 sequence: SSGERMMGG

The subject of series [10] is T10, EP 2.2.
T10 sequence: AAVERWGGS

The subject of series [11] is T11, EP 4.8.
T11 sequence: VRDYRMGGQ

Series [12] has as its system T12, EP 4.3.
T12 sequence: SSGDRMWGG

For series [13], the system named is T13, EP 4.10.
T13 sequence: GSSERAAAG

Series [14] deals with T14, Canonical (enteropeptidase substrate).
T14 sequence: DDDDKGGQS

Series [15] has as its system T15, EP 4.4.
T15 sequence: SEYDRQLGS

Series [16] relates to T16, EP 4.7.
T16 sequence: GSDDRRAGG

Series [17] concerns T17, VPVNM (MMP substrate, 5X library).
T17 sequence: VPVNM

In series [18] the test system is T18, PVPMV (MMP substrate, 5X library).
T18 sequence: PVPMV

For series [19], the system named is T19, MPLVM (MMP substrate, 5X library).
T19 sequence: MPLVM

Series [20] concerns T20, PVAMR (MMP substrate, 5X library).
T20 sequence: PVAMR

The subject of series [21] is T21, VPMVV (MMP substrate, 5X library).
T21 sequence: VPMVV

The subject of series [22] is T22, VPLNM (MMP substrate, 5X library).
T22 sequence: VPLNM

Series [23] relates to T23, TPLAL (MMP substrate, 5X library).
T23 sequence: TPLAL

The subject of series [24] is T24, MPVVL (MMP substrate, 5X library).
T24 sequence: MPVVL

The test system of series [25] is T25, PVNVV (MMP substrate, 5X library).
T25 sequence: PVNVV

Series [26] concerns T26, PMAVI (MMP substrate, 5X library).
T26 sequence: PMAVI

The test system of series [27] is T27, PMAVT (MMP substrate, 5X library).
T27 sequence: PMAVT

The subject of series [28] is T28, VPVVM (MMP substrate, 5X library).
T28 sequence: VPVVM

The target of series [29] is T29, Canonical (caspase-3 substrate).
T29 chain: QDEVDGGQS
Wherever % Conversion is given: test concentration or dose not given here.

With “catalytic subunit light chain of enteropeptidase”, the Conversion (fraction converted) in [1] is 0.86; in [3], 0.72; in [4] it was 0.84; in series [5], 0.84; in series [8], 0.84; in [9] it was 0.93. In addition, the Conversion (fraction converted) worked out at 0.69 in [10]; 0.87 in series [11]; 0.97 in series [12]; 0.78 in series [13]; 0.15 in series [14]; 0.71 in series [15]. In series [16], this molecule displayed a Conversion (fraction converted) of 0.91. In addition, the “change in fluorescence (SA-PE label) after incubation with enteropeptidase” value in [2] is “exhibited minimal change in fluorescence”. Besides, the “cleavage rate of the CyPet-YPet fusion by fluorimetry, relative to DDDDK” value in [6] was “cleaved at a rate 17-fold faster than DDDDK”. Also, the kcat/KM of the synthetic fluorogenic peptide, relative to DDDDK in series [7] is greater than 5 fold. In series [14], this molecule displayed a decrease in mean fluorescence intensity (SA-PE label) after incubation with enteropeptidase of 20 fold.

In the case of matrix metalloprotease-1, the % Conversion (fraction (head says % Conversion)) in series [17] is 0.76; in [18], 0.496; in series [19], 0.659; in [20], 0.729; in series [21], 0.814 and 0.443; in [22] it was 0.844 and 0.61. Besides, the % Conversion (fraction (head says % Conversion)) in series [23] amounted to 0.417; in [24] it was 0.428; in series [25] it was 0.789; in series [26], 0.699; in series [27], 0.504; in series [28] it was 0.366.

B1: caspase-3 (protein)
chain: MENTENSVDSKSIKNLEPKIIHGSESMDSGISLDNSYKMDYPEMGLCIIINNKNFHKSTGMTSRSGTDVDAANLRETFRNLKYEVRNKNDLTREEIVELMRDVSKEDHSKRSSFVCVLLSHGEEGIIFGTNGPVDLKKITNFFRGDRCRSLTGKPKLFIIQACRGTELDCGIETDSGVDDDMACHKIPVEADFLYAYSTAPGYYSWRNSKDGSWFIQSLCAMLKQYADKLEFMHILTRVNRKVATEFESFSFDATFHAKKQIPCIVSMLTKELYFYH
As to B1, the Conversion (fraction converted) in series [29] came out at 0.95.
